Source: paper PMC5701296, “α-Synuclein-Dependent Calcium Entry Underlies Differential Sensitivity of Cultured SN and VTA Dopaminergic Neurons to a Parkinsonian Neurotoxin” (eNeuro, 2017)

Substrate: CN(C)c1ccc(-c2cc[n+](C)cc2)cc1
Assay: concentration-dependent fluorescent uptake, Lineweaver-Burk; blocked by nomifensine
Assay type: cell-based, Mus musculus

B1: DA uptake transporter (DAT) (Mus musculus) (protein)
chain: MSKSKCSVGPMSSVVAPAKEPNAVGPREVELILVKEQNGVQLTNSTLINPPQTPVEVQERETWSKKIDFLLSVIGFAVDLANVWRFPYLCYKNGGGAFLVPYLLFMVIAGMPLFYMELALGQFNREGAAGVWKICPVLKGVGFTVILISFYVGFFYNVIIAWALHYFFSSFTMDLPWIHCNNTWNSPNCSDAHSSNSSDGLGLNDTFGTTPAAEYFERGVLHLHQSRGIDDLGPPRWQLTACLVLVIVLLYFSLWKGVKTSGKVVWITATMPYVVLTALLLRGVTLPGAMDGIRAYLSVDFYRLCEASVWIDAATQVCFSLGVGFGVLIAFSSYNKFTNNCYRDAIITTSINSLTSFSSGFVVFSFLGYMAQKHNVPIRDVATDGPGLIFIIYPEAIATLPLSSAWAAVFFLMLLTLGIDSAMGGMESVITGLVDEFQLLHRHRELFTLGIVLATFLLSLFCVTNGGIYVFTLLDHFAAGTSILFGVLIEAIGVAWFYGVQQFSDDIKQMTGQRPNLYWRLCWKLVSPCFLLYVVVVSIVTFRPPHYGAYIFPDWANALGWIIATSSMAMVPIYATYKFCSLPGSFREKLAYAITPEKDRQLVDRGEVRQFTLRHWLLV
notes: native transporter in cultured primary mouse SN and VTA dopaminergic neurons
With B1 the Km was 16.9 ± 5.5 µM.
